The source of these data is patent US20020141999A1.

Assay [1] concerns the target human CD7, full length, on cells (human) (UniProt P09564). The experiment in a line: flow cytometry, antibody staining of Jurkat cells (express CD7), non-blocked.
Assay [2] shares this target. As to the kind of experiment: flow cytometry, antibody staining of Jurkat cells preincubated with HuK12-Fc (competitor).
Assay [3] shares this target. As to the kind of experiment: flow cytometry, control IgG on Jurkat cells (express CD7), non-blocked.
Assay [4] shares this target. As to the kind of experiment: flow cytometry, control IgG staining of Jurkat cells (express CD7), non-blocked.
Assay [5] shares this target. As to the kind of experiment: flow cytometry, control Fc on Jurkat cells (express CD7), non-blocked.

Sequence of human CD7, full length, on cells (human) (P09564 26-240 limits assumed): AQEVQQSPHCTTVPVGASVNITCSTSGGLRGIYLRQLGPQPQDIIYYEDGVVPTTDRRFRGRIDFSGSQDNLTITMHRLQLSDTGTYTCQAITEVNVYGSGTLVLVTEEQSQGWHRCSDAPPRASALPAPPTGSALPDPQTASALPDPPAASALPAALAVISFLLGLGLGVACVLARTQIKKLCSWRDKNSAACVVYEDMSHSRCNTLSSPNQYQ

In assay [1], “anti-human CD7 monoclonal antibody Clone CLB-3A1 (Research Diagnostics, Inc.)” returned a % Positive Cells of 80% and an MFI of 30. In assay [2], this substance registered a % Positive Cells of 63% and an MFI of 24.

Take “anti-human CD7 monoclonal antibody Clone 4H9 (Pharmingen)”: the % Positive Cells in assay [1] amounted to 88%; in assay [2], 4%. Moreover, the MFI in assay [1] amounted to 38; in assay [2], 19.

In assay [1], “anti-human CD7 monoclonal antibody Clone RFT-2a (Research Diagnostics, Inc.)” registered a % Positive Cells of 71% and an MFI of 23. In assay [2], this substance had a % Positive Cells of 9% and an MFI of 18.

In assay [1], “anti-human CD7 monoclonal antibody Clone M-T701 (Becton Dickinson)” returned a % Positive Cells of 78% and an MFI of 27. For the same substance, in assay [2], the % Positive Cells turned out to be 12% and the MFI came to 19.

Regarding IgG Control (antibody), in assay [3], the % Positive Cells amounted to 3.6% and the MFI was found to be 17. In assay [4], this substance displayed a % Positive Cells of 3% and an MFI of 18.

Take Control Fc (Fc fusion): in assay [5], the % Positive Cells came to 3.4% and the MFI stood at 18.

For “anti-human CD7 monoclonal antibody Clone WM31 (Research Diagnostics, Inc.)”, the % Positive Cells amounted to 62% in assay [1] and 11% in assay [2]. Besides, the MFI is 22 in assay [1] and 18 in assay [2].

With “anti-human CD7 monoclonal antibody Clone 8118.1 (Immunotech)”, the values for the % Positive Cells in assay [1] and in assay [2] were 78% and 8%, respectively. The MFI in assay [1] worked out at 27; in assay [2], 24.
